Assay results taken from PMC11148119.

Target: T1, Full-length rat TRPV2 with a C-terminal 1D4 tag, reconstituted into MSP2N2 nanodiscs (rat), Q9WUD2
T1 chain: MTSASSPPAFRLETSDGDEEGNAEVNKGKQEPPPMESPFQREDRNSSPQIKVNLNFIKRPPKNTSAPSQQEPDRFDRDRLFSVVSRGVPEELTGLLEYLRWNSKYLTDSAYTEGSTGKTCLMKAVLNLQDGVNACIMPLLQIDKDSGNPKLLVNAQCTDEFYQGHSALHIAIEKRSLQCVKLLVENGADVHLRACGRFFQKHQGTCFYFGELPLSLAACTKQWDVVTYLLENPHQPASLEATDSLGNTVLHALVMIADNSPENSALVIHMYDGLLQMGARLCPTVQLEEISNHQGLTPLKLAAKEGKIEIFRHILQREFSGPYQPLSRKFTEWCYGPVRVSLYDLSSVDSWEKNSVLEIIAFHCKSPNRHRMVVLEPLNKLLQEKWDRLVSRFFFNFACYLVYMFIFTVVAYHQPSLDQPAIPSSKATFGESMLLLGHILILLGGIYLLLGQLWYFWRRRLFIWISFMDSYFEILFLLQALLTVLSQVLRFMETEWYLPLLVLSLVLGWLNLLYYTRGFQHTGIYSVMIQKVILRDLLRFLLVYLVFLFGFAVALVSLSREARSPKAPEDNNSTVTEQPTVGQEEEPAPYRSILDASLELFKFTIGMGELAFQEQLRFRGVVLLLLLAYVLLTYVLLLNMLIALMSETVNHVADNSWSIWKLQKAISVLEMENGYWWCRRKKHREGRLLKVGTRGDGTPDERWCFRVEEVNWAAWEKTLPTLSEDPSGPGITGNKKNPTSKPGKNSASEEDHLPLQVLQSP
Test: cryo-EM structure; rTRPV2 in MSP2N2/soy polar lipid nanodiscs; apo dataset at pH 8 (states Apo1, Apo2, Apo3) and dataset with 30 mM sodium acetate at final pH 5.0 (TRPV2_HOAc); grids prepared at 4 °C; maps refined with C4 symmetry
Conditions: remark: other sources report otherwise

B1: Full-length rat TRPV2 with a C-terminal 1D4 tag, reconstituted into MSP2N2 nanodiscs, Q9WUD2 1-761 (natural protein)
chain: T1 chain
For B1, the stoichiometry N was 4.
